Values quoted from earlier work as cited in patent US20180185417.

Target: CD31 (PECAM-1) (Homo sapiens) (UniProt P16284)
Details: CITED reported affinity of the commercial aptamer (1.14×10−9 M), method not stated

In the case of CD31 aptamer (APTSCI CD31-2196BCI), the Kd is given as 1.14 nM.
